Experimental data published in patent publication US20180291083A1 (IMMATICS BIOTECHNOLOGIES, published 2018).

B1: YLNRHLHTW (peptide)
peptide: YLNRHLHTW
B2: RPNGNSLFTSA (peptide)
peptide: RPNGNSLFTSA
B3: IPVSRPIL (peptide)
peptide: IPVSRPIL
B4: LPARFYQAL (peptide)
peptide: LPARFYQAL
B5: YPIALTRAEM (peptide)
peptide: YPIALTRAEM
B6: NPLTKLLAI (peptide)
peptide: NPLTKLLAI
B7: MPDPHLYHQM (peptide)
peptide: MPDPHLYHQM
B8: LPLSMEAKI (peptide)
peptide: LPLSMEAKI
B9: FPETVNNLL (peptide)
peptide: FPETVNNLL
B10: KPLFKVSTF (peptide)
peptide: KPLFKVSTF
B11: NPRYPNYMF (peptide)
peptide: NPRYPNYMF
B12: SPRAINNLVL (peptide)
peptide: SPRAINNLVL
B13: KPKAAKPKKAAA (peptide)
peptide: KPKAAKPKKAAA
B14: IPANTEKASF (peptide)
peptide: IPANTEKASF
B15: SPVPSHWMVA (peptide)
peptide: SPVPSHWMVA
B16: APFGFLGMQSL (peptide)
peptide: APFGFLGMQSL
B17: KAFKWFSAL (peptide)
peptide: KAFKWFSAL
B18: KPKKAPKSPA (peptide)
peptide: KPKKAPKSPA
B19: KAKKPAGAA (peptide)
peptide: KAKKPAGAA
B20: SPRITFPSL (peptide)
peptide: SPRITFPSL
B21: KPKAAKPKA (peptide)
peptide: KPKAAKPKA
B22: KARKSAGAA (peptide)
peptide: KARKSAGAA
B23: IPVSHPVL (peptide)
peptide: IPVSHPVL
B24: IPASHPVL (peptide)
peptide: IPASHPVL
B25: SPKLQIAAM (peptide)
peptide: SPKLQIAAM
B26: LPFGKIPIL (peptide)
peptide: LPFGKIPIL
B27: APINKAGSFL (peptide)
peptide: APINKAGSFL
B28: RPRGLALVL (peptide)
peptide: RPRGLALVL
B29: SESPWLHAPSL (peptide)
peptide: SESPWLHAPSL
B30: FPAPILRAV (peptide)
peptide: FPAPILRAV
B31: KPKAAKPKAA (peptide)
peptide: KPKAAKPKAA
B32: KPKAAKPKTA (peptide)
peptide: KPKAAKPKTA
B33: RPMTPTQIGPSL (peptide)
peptide: RPMTPTQIGPSL
B34: YPYQERVFL (peptide)
peptide: YPYQERVFL
B35: KELEDLNKW (peptide)
peptide: KELEDLNKW
B36: AESEDLAVHLY (peptide)
peptide: AESEDLAVHLY
B37: EEEGNLLRSW (peptide)
peptide: EEEGNLLRSW
B38: VDASIFKAW (peptide)
peptide: VDASIFKAW
B39: KEKFPINGW (peptide)
peptide: KEKFPINGW
B40: KEFELRSSW (peptide)
peptide: KEFELRSSW
B41: QENQAETHAW (peptide)
peptide: QENQAETHAW
B42: EEGNLLRSW (peptide)
peptide: EEGNLLRSW
B43: TENPLTKLL (peptide)
peptide: TENPLTKLL
B44: AEIEIVKEEF (peptide)
peptide: AEIEIVKEEF
B45: AESEDLAVHL (peptide)
peptide: AESEDLAVHL
B46: SEDHSGSYW (peptide)
peptide: SEDHSGSYW
B47: EELFRDGVNW (peptide)
peptide: EELFRDGVNW
B48: QEVDASIFKAW (peptide)
peptide: QEVDASIFKAW
B49: NEDKGTKAW (peptide)
peptide: NEDKGTKAW
B50: EENTLVQNY (peptide)
peptide: EENTLVQNY
B51: NEIEHIPVW (peptide)
peptide: NEIEHIPVW
B52: AEIGEGAYGKVF (peptide)
peptide: AEIGEGAYGKVF
B53: REAGFQVKAY (peptide)
peptide: REAGFQVKAY
B54: GEAVTDHPDRLW (peptide)
peptide: GEAVTDHPDRLW

The binders below were run against T1, HLA-B*07:02 (human) (assay: UV ligand exchange ELISA; exchange yield grade).
T1 construct: Peptide-receptive MHC class I monomer made by UV cleavage of a UV-sensitive ligand
Source text: (§1) Candidate peptides for T cell based therapies according to the present invention were further tested for their MHC binding capacity (affinity). The individual peptide-MHC complexes were produced by UV-ligand exchange, where a UV-sensitive peptide is cleaved upon UV-irradiation, and exchanged with the peptide of interest as analyzed. Only peptide candidates that can effectively bind and stabilize the peptide-receptive MHC molecules prevent dissociation of the MHC complexes. To determine the yield of the exchange reaction, an ELISA was performed based on the detection of the light chain (β2m) of stabilized MHC complexes. The assay was performed as generally described in Rodenko et al. (Rodenko et al., 2006).
(§2) 96 well MAXISorp plates (NUNC) were coated over night with 2 ug/ml streptavidin in PBS at room temperature, washed 4× and blocked for 1 h at 37° C. in 2% BSA containing blocking buffer. Refolded HLA-A*02:01/MLA-001 monomers served as standards, covering the range of 15-500 ng/ml. Peptide-MHC monomers of the UV-exchange reaction were diluted 100-fold in blocking buffer. Samples were incubated for 1 h at 37° C., washed four times, incubated with 2 ug/ml HRP conjugated anti-β2m for 1 h at 37° C., washed again and detected with TMB solution that is stopped with […]. Absorption was measured at 450 nm. Candidate peptides that show a high exchange yield (preferably higher than 50%, most preferred higher than 75%) are generally preferred for a generation and production of antibodies or fragments thereof, and/or T cell receptors or fragments thereof, as they show sufficient avidity to the MHC molecules and prevent dissociation of the MHC complexes.

Row | peptide exchange yield [%] | Binder
1 | 20 to 50 | B1
2 | 50 to 75 | B2
3 | 50 to 75 | B3
4 | > 75 | B4
5 | 50 to 75 | B5
6 | 50 to 75 | B6
7 | 20 to 50 | B7
8 | 20 to 50 | B8
9 | 20 to 50 | B9
10 | 20 to 50 | B10
11 | 50 to 75 | B11
12 | > 75 | B12
13 | 20 to 50 | B13
14 | 20 to 50 | B14
15 | 50 to 75 | B15
16 | 50 to 75 | B16
17 | 20 to 50 | B17

Row | peptide exchange yield [%] | Binder
18 | 50 to 75 | B18
19 | 20 to 50 | B19
20 | > 75 | B20
21 | 20 to 50 | B21
22 | 50 to 75 | B22
23 | 20 to 50 | B23
24 | 20 to 50 | B24
25 | 50 to 75 | B25
26 | 20 to 50 | B26
27 | > 75 | B27
28 | 50 to 75 | B28
29 | 50 to 75 | B29
30 | 50 to 75 | B30
31 | 20 to 50 | B31
32 | 20 to 50 | B32
33 | 50 to 75 | B33
34 | 20 to 50 | B34

These binders were tested against T2, HLA-B*44:02 (human) (assay: UV ligand exchange ELISA; exchange yield grade).
T2 construct: Peptide-receptive MHC class I monomer made by UV cleavage of a UV-sensitive ligand
Source text: as §1, §2

Row | peptide exchange yield [%] | Binder
35 | 50 to 75 | B35
36 | 20 to 50 | B36
37 | 50 to 75 | B37
38 | 20 to 50 | B38
39 | 50 to 75 | B39
40 | 50 to 75 | B40
41 | 50 to 75 | B41
42 | 50 to 75 | B42
43 | > 75 | B43
44 | 20 to 50 | B44
45 | 20 to 50 | B45
46 | 50 to 75 | B46
47 | 50 to 75 | B47
48 | 50 to 75 | B48
49 | 20 to 50 | B49
50 | 20 to 50 | B50
51 | 50 to 75 | B51
52 | 50 to 75 | B52
53 | 50 to 75 | B53
54 | 50 to 75 | B54
